Results: patent US20230159662A1 (Kyowa Kirin, published 2023)
Substitutions are numbered along the chain they refer to. Names and notes keep the numbering of the source.

B1: human IgG1 anti-human CCR4 antibody (KM2160), F243L/R292P/Y300L (antibody)
heavy: EVQLVESGGDLMKPGGSLKISCAASGFIFSNYGMSWVRQTPDMRLEWVATISSASTYSYYPDSVKGRFTISRDNAENSLYLQMNSLRSEDTGIYYCGRHSDGNFAFGYWGRGTLVTVSAASTKGPSVFPLAPSSKSTSGGTAALGCLVKDYFPEPVTVSWNSGALTSGVHTFPAVLQSSGLYSLSSVVTVPSSSLGTQTYICNVNHKPSNTKVDKKVEPKSCDKTHTCPPCPAPELLGGPSVFLLPPKPKDTLMISRTPEVTCVVVDVSHEDPEVKFNWYVDGVEVHNAKTKPPEEQYNSTLRVVSVLTVLHQDWLNGKEYKCKVSNKALPAPIEKTISKAKGQPREPQVYTLPPSRDELTKNQVSLTCLVKGFYPSDIAVEWESNGQPENNYKTTPPVLDSDGSFFLYSKLTVDKSRWQQGNVFSCSVMHEALHNHYTQKSLSLSPGK
light: DVLMTQTPLSLPVSLGDQASISCRSSRNIVHINGDTYLEWYLQRPGQSPKLLIYKVSNRFSGVPDRFSGSGSGTDFTLKISRVEAEDLGVYYCFQGSLLPWTFGGGTRLEIRRTVAAPSVFIFPPSDEQLKSGTASVVCLLNNFYPREAKVQWKVDNALQSGNSQESVTEQDSKDSTYSLSSTLTLSKADYEKHKVYACEVTHQGLSSPVTKSFNRGEC
B2: human IgG1 anti-human CCR4 antibody (KM2160), F243L/R292P/Y300L/V305I/P396L (antibody)
heavy: B1 heavy with V307I, P398L
light: B1 light
B3: human IgG1 anti-human CCR4 antibody (KM2160), P230A/E233D/I332E (antibody)
heavy: B1 heavy with P232A, E235A, L245F, P294R, L302Y, I334E
light: B1 light
B4: human IgG1 anti-human CCR4 antibody (KM2160), K288N/A330S/P396L (antibody)
heavy: B1 heavy with L245F, K290N, P294R, L302Y, A332S, P398L
light: B1 light
B5: human IgG1 anti-human CCR4 antibody (KM2160), K334E/T359N/T366S (antibody)
heavy: B1 heavy with L245F, P294R, L302Y, K336E, T361N, T368S
light: B1 light
B6: human IgG1 anti-human CCR4 antibody (KM2160), G316D/A378V/D399E (antibody)
heavy: B1 heavy with L245F, P294R, L302Y, G318D, A380V, D401E
light: B1 light

These binders were tested against human CD16a (Val type) stably expressed on NK-92 cells (NK-92/CD16 transfectant) (human, UniProt P08637 17-254) (assay: cell-based or functional assay).
Sequence of human CD16a (Val type) stably expressed on NK-92 cells (NK-92/CD16 transfectant) (P08637 17-254 F176V): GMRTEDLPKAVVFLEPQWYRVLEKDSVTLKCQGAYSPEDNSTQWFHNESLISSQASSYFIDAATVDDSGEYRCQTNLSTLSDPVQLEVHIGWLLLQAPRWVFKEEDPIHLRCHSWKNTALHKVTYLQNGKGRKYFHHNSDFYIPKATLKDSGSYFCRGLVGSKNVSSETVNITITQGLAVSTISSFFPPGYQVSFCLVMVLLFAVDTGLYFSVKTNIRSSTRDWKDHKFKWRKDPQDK

In order of falling “relative ADCC activity (AAA = 100)” value:
1. B3  53 relative, AAA at 0.1 µg/mL = 100
2. B1  3 relative, AAA at 0.1 µg/mL = 100
3. B2  -9 relative, AAA at 0.1 µg/mL = 100
4. B6  -38 relative, AAA at 0.1 µg/mL = 100
5. B5  -110 relative, AAA at 0.1 µg/mL = 100
6. B4  -131 relative, AAA at 0.1 µg/mL = 100
